According to patent US20240294646A1:

Legend:
[1] = target: Soluble FcγRIIaR extracellular domain with C-terminal 10×His tag (UniProt P12318); assay: SPR (Biacore 4000), antibody captured on immobilised HER2, soluble receptor as analyte
[2] = target: Soluble FcγRIIb extracellular domain with C-terminal 10×His tag (UniProt P31994); assay: as above
[3] = target: FcγRIIaR, soluble extracellular domain (UniProt P12318); assay: SPR (Biacore 4000, Protocol 2): antibody captured on immobilised HER2, soluble receptor as analyte
Sequence of FcγRIIaR, soluble extracellular domain (P12318 34-217): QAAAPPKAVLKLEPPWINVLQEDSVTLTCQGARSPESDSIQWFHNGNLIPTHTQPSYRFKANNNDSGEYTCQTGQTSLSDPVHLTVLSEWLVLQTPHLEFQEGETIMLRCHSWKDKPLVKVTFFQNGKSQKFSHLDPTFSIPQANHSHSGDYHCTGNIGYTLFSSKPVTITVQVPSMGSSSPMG

[4] = target: FcγRIIb (UniProt P31994); assay: SPR (Protocol 1); IIb-Fold over IIaR-Fold
Sequence of FcγRIIb (P31994 43-217 limits assumed): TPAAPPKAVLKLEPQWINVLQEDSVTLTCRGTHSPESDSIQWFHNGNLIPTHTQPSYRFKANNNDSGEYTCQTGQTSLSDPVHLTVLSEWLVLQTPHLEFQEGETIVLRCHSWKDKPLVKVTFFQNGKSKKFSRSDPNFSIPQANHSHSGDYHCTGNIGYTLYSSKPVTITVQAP

[5] = target: FcγRIIaR (UniProt P12318); assay: SPR (Protocol 1), one-armed antibody captured on HER2, receptor as analyte; fold over wild-type
Sequence of FcγRIIaR (P12318 34-217): as the sequence (P12318 34-217) above

[6] = target: FcγRIIb (UniProt P31994); assay: as above
[7] = target: FcγRIIb, soluble extracellular domain (UniProt P31994); assay: SPR (Biacore 4000, Protocol 2): antibody captured on immobilised HER2, soluble receptor as analyte
Sequence of FcγRIIb, soluble extracellular domain (P31994 43-217): as the sequence (P31994 43-217 limits assumed) above

[8] = target: C1q (human) (UniProt P02745); assay: ELISA; antibody coated, human C1q added, signal as % of WT
Sequence of C1q (human) (P02745 23-245 limits assumed, chain 1 of 3): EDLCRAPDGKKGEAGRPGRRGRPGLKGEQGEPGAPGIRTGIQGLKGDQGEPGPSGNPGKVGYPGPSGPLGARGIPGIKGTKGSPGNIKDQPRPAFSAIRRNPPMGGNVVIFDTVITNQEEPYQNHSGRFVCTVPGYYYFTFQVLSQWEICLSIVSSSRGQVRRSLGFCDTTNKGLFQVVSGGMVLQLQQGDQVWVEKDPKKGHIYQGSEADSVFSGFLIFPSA
Sequence of C1q (human) (P02746 28-253 limits assumed, chain 2 of 3, further chain): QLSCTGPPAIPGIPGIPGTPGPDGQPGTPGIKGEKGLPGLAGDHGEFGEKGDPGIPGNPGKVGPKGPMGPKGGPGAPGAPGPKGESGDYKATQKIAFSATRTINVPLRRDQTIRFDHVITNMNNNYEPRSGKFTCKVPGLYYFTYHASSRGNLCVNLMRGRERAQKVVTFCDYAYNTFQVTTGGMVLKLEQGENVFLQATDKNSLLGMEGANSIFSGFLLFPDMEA
Sequence of C1q (human) (P02747 29-245 limits assumed, chain 3 of 3, further chain): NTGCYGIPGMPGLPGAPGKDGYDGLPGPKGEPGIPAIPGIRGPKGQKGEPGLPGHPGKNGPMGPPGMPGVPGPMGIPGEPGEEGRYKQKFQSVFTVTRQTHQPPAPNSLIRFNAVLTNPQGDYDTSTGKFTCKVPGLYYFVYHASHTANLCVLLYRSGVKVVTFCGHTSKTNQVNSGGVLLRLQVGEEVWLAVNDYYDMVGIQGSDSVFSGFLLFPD

Sequence of Soluble FcγRIIb extracellular domain with C-terminal 10×His tag (P31994 other isoform, or with tags, fused parts or gaps): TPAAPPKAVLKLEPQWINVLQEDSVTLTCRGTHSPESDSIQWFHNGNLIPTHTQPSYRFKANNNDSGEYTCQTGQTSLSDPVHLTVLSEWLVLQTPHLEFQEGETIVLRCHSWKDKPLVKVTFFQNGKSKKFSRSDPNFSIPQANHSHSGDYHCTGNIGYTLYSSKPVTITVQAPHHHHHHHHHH
Sequence of Soluble FcγRIIaR extracellular domain with C-terminal 10×His tag (P12318 other isoform, or with tags, fused parts or gaps): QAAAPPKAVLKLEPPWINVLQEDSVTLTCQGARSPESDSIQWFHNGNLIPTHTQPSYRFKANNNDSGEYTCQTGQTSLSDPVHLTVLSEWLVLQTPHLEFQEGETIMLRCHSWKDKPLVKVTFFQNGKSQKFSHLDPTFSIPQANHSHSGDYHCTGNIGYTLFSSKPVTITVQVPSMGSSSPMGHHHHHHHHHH

What does the source list for “Variant 26713 (A_D270V_strat2), one-armed trastuzumab antibody”?
Kd [1]: 89 nM; Kd [2]: 41 nM

How did the Kd [3] turn out when “Variant 26732 (A_P271I_strat2), one-armed trastuzumab antibody with heterodimeric IgG1 Fc” was run?
Its Kd is 70 nM.

With “variant 16532, one-armed trastuzumab antibody (Scaffold 2), chain A E269K, chain B S267I” as the substance, how does the IIb/IIaR Selectivity [4] read?
The IIb/IIaR Selectivity was 1.84.

What about the IIaR-Fold (fold affinity over wild-type) [5] of the same substance?
Its IIaR-Fold (fold affinity over wild-type) is 0.51 fold.

What about the IIb-Fold (fold affinity over wild-type) [6] of the same substance?
The IIb-Fold (fold affinity over wild-type) was 0.95 fold.

With “Variant 26711 (A_D270G_strat2), one-armed trastuzumab antibody” as the substance, how does the Kd [1] read?
The Kd was 180 nM.

And the Kd [2]?
The Kd was 53 nM.

Which Kd [1] does the source give for “Variant 26710 (A_E269P_strat2), one-armed trastuzumab antibody” here?
Its Kd is 78 nM.

And the Kd [2]?
Its Kd is 27 nM.

With “Variant 26705 (A_E269N_strat2), one-armed trastuzumab antibody” as the substance, how does the Kd [1] read?
The Kd was 83 nM.

What about the Kd [2] of the same substance?
Its Kd is 26 nM.

What does the source list for “variant 16491, one-armed trastuzumab antibody (Scaffold 2), chain B E269K_G236N”?
IIb/IIaR Selectivity [4]: 2.48; IIaR-Fold (fold affinity over wild-type) [5]: 0.1 fold; IIb-Fold (fold affinity over wild-type) [6]: 0.24 fold

For “variant 16492, one-armed trastuzumab antibody (Scaffold 2), chain A E269K, chain B G236N”, which IIb/IIaR Selectivity [4] is on record?
Its IIb/IIaR Selectivity is 1.83.

What about the IIaR-Fold (fold affinity over wild-type) [5] of the same substance?
Its IIaR-Fold (fold affinity over wild-type) is 0.07 fold.

And the IIb-Fold (fold affinity over wild-type) [6]?
The IIb-Fold (fold affinity over wild-type) was 0.13 fold.

For “Variant 26716 (A_D270F_strat2), one-armed trastuzumab antibody”, which Kd [1] is on record?
The Kd was 48 nM.

And the Kd [2]?
Its Kd is 17 nM.

How did the Kd [3] turn out when “Variant 26726 (A_D270H_strat2), one-armed trastuzumab antibody with heterodimeric IgG1 Fc” was run?
The Kd was 74 nM.

What about the Kd [7] of the same substance?
Its Kd is 23 nM.

How did the Kd [7] turn out when “Variant 26740 (A_P271D_strat2), one-armed trastuzumab antibody with heterodimeric IgG1 Fc” was run?
The Kd was 29 nM.

How did the Kd [1] turn out when “Variant 26719 (A_D270T_strat2), one-armed trastuzumab antibody” was run?
The Kd was 63 nM.

And the Kd [2]?
The Kd was 23 nM.

How did the IIb/IIaR Selectivity [4] turn out when “variant 16549, one-armed trastuzumab antibody (Scaffold 2), chain B E269K_L234D” was run?
The IIb/IIaR Selectivity was 1.83.

What about the IIaR-Fold (fold affinity over wild-type) [5] of the same substance?
The IIaR-Fold (fold affinity over wild-type) was 0.19 fold.

And the IIb-Fold (fold affinity over wild-type) [6]?
The IIb-Fold (fold affinity over wild-type) was 0.35 fold.

Which Kd [1] does the source give for “Variant 26714 (A_D270L_strat2), one-armed trastuzumab antibody” here?
The Kd was 79 nM.

And the Kd [2]?
Its Kd is 33 nM.

Which Kd [3] does the source give for “Variant 26721 (A_D270Q_strat2), one-armed trastuzumab antibody with heterodimeric IgG1 Fc” here?
The Kd was 87 nM.

And the Kd [7]?
The Kd was 28 nM.

How did the Kd [3] turn out when “Variant 26728 (A_P271G_strat2), one-armed trastuzumab antibody with heterodimeric IgG1 Fc” was run?
The Kd was 64 nM.

And the Kd [7]?
The Kd was 22 nM.

What does the source list for “Variant 26703 (A_E269S_strat2), one-armed trastuzumab antibody”?
Kd [1]: 60 nM; Kd [2]: 24 nM

With “variant 16577, one-armed trastuzumab antibody (Scaffold 2), chain A E269K, chain B A327G_A330S_P331S_L234F_H268Q_K274Q” as the substance, how does the IIb/IIaR Selectivity [4] read?
The IIb/IIaR Selectivity was 1.26.

What about the IIaR-Fold (fold affinity over wild-type) [5] of the same substance?
Its IIaR-Fold (fold affinity over wild-type) is 0.82 fold.

What about the IIb-Fold (fold affinity over wild-type) [6] of the same substance?
Its IIb-Fold (fold affinity over wild-type) is 1.03 fold.

For “Variant 26708 (A_E269K_strat2), one-armed trastuzumab antibody”, which Kd [1] is on record?
Its Kd is 70 nM.

What about the Kd [2] of the same substance?
The Kd was 22 nM.

How did the Kd [1] turn out when “Variant 26712 (A_D270A_strat2), one-armed trastuzumab antibody” was run?
The Kd was 80 nM.

What about the Kd [2] of the same substance?
Its Kd is 29 nM.

Which Kd [3] does the source give for “Variant 26722 (A_D270N_strat2), one-armed trastuzumab antibody with heterodimeric IgG1 Fc” here?
The Kd was 77 nM.

What about the Kd [7] of the same substance?
The Kd was 21 nM.

Which results are given for “Variant 26704 (A_E269Q_strat2), one-armed trastuzumab antibody”?
Kd [1]: 66 nM; Kd [2]: 22 nM

Which Kd [1] does the source give for “Variant 26701 (A_E269Y_strat2), one-armed trastuzumab antibody” here?
Its Kd is 67 nM.

What about the Kd [2] of the same substance?
The Kd was 21 nM.

“Variant 26730 (A_P271V_strat2), one-armed trastuzumab antibody with heterodimeric IgG1 Fc” was tested. Which Kd [3] did it give?
Its Kd is 85 nM.

And the Kd [7]?
The Kd was 27 nM.

“Variant 26729 (A_P271A_strat2), one-armed trastuzumab antibody with heterodimeric IgG1 Fc” was tested. Which Kd [3] did it give?
Its Kd is 93 nM.

What about the Kd [7] of the same substance?
The Kd was 34 nM.

For “Variant 26706 (A_E269D_strat2), one-armed trastuzumab antibody”, which Kd [1] is on record?
The Kd was 61 nM.

And the Kd [2]?
Its Kd is 20 nM.

How did the Kd [3] turn out when “Variant 26737 (A_P271S_strat2), one-armed trastuzumab antibody with heterodimeric IgG1 Fc” was run?
The Kd was 90 nM.

And the Kd [7]?
Its Kd is 36 nM.

Which Kd [3] does the source give for “Variant 26727 (A_D270P_strat2), one-armed trastuzumab antibody with heterodimeric IgG1 Fc” here?
The Kd was 180 nM.

And the Kd [7]?
Its Kd is 88 nM.

Which results are given for “Variant 26734 (A_P271W_strat2), one-armed trastuzumab antibody with heterodimeric IgG1 Fc”?
Kd [3]: 72 nM; Kd [7]: 28 nM

Which Kd [1] does the source give for “Variant 26707 (A_E269R_strat2), one-armed trastuzumab antibody” here?
The Kd was 77 nM.

And the Kd [2]?
The Kd was 23 nM.

For “Variant 26735 (A_P271Y_strat2), one-armed trastuzumab antibody with heterodimeric IgG1 Fc”, which Kd [3] is on record?
Its Kd is 110 nM.

What about the Kd [7] of the same substance?
Its Kd is 35 nM.

“Variant 26717 (A_D270W_strat2), one-armed trastuzumab antibody” was tested. Which Kd [1] did it give?
The Kd was 83 nM.

And the Kd [2]?
The Kd was 27 nM.

For “variant 16488, one-armed trastuzumab antibody (Scaffold 2), chain B E269K_G236D”, which IIb/IIaR Selectivity [4] is on record?
The IIb/IIaR Selectivity was 0.91.

And the IIaR-Fold (fold affinity over wild-type) [5]?
The IIaR-Fold (fold affinity over wild-type) was 0.17 fold.

What about the IIb-Fold (fold affinity over wild-type) [6] of the same substance?
The IIb-Fold (fold affinity over wild-type) was 0.16 fold.

What does the source list for “Variant 26733 (A_P271F_strat2), one-armed trastuzumab antibody with heterodimeric IgG1 Fc”?
Kd [3]: 87 nM; Kd [7]: 31 nM

For “variant 16570, one-armed trastuzumab antibody (Scaffold 2), chain B E269K_L234F”, which IIb/IIaR Selectivity [4] is on record?
The IIb/IIaR Selectivity was 3.35.

And the IIaR-Fold (fold affinity over wild-type) [5]?
Its IIaR-Fold (fold affinity over wild-type) is 0.11 fold.

And the IIb-Fold (fold affinity over wild-type) [6]?
Its IIb-Fold (fold affinity over wild-type) is 0.37 fold.

With “Variant 32257 (trastuzumab FSA; chain A A237E_strat1, chain B G330*K_strat1) (antibody)” as the substance, how does the C1q Binding (% WT) [8] read?
Its C1q Binding (% WT) is 145 % WT.

For “Variant 32268 (trastuzumab FSA; chain A S239T_strat1, chain B G330*K_strat1) (antibody)”, which C1q Binding (% WT) [8] is on record?
Its C1q Binding (% WT) is 210 % WT.

Which IIb/IIaR Selectivity [4] does the source give for “variant 16531, one-armed trastuzumab antibody (Scaffold 2), chain B E269K_S267I” here?
Its IIb/IIaR Selectivity is 1.45.

What about the IIaR-Fold (fold affinity over wild-type) [5] of the same substance?
The IIaR-Fold (fold affinity over wild-type) was 0.19 fold.

What about the IIb-Fold (fold affinity over wild-type) [6] of the same substance?
The IIb-Fold (fold affinity over wild-type) was 0.27 fold.

Which results are given for “variant 16576, one-armed trastuzumab antibody (Scaffold 2), chain B E269K_A327G_A330S_P331S_L234F_H268Q_K274Q”?
IIb/IIaR Selectivity [4]: 1.89; IIaR-Fold (fold affinity over wild-type) [5]: 0.11 fold; IIb-Fold (fold affinity over wild-type) [6]: 0.21 fold

Which C1q Binding (% WT) [8] does the source give for “Variant 32277 (trastuzumab FSA; chain A S239G_strat2, chain B G237L_strat2) (antibody)” here?
Its C1q Binding (% WT) is 0 % WT.

“Variant 26731 (A_P271L_strat2), one-armed trastuzumab antibody with heterodimeric IgG1 Fc” was tested. Which Kd [3] did it give?
Its Kd is 68 nM.

And the Kd [7]?
The Kd was 22 nM.

Which Kd [3] does the source give for “Variant 26723 (A_D270E_strat2), one-armed trastuzumab antibody with heterodimeric IgG1 Fc” here?
Its Kd is 42 nM.

And the Kd [7]?
The Kd was 13 nM.

With “Variant 26724 (A_D270R_strat2), one-armed trastuzumab antibody with heterodimeric IgG1 Fc” as the substance, how does the Kd [7] read?
The Kd was 89 nM.

How did the C1q Binding (% WT) [8] turn out when “Variant 32260 (trastuzumab FSA; chain A L234D_strat1, chain B G330*K_strat1) (antibody)” was run?
The C1q Binding (% WT) was 189 % WT.

“Variant 26702 (A_E269T_strat2), one-armed trastuzumab antibody” was tested. Which Kd [1] did it give?
Its Kd is 64 nM.

And the Kd [2]?
The Kd was 26 nM.

What does the source list for “Variant 26715 (A_D270I_strat2), one-armed trastuzumab antibody”?
Kd [1]: 81 nM; Kd [2]: 25 nM

For “Variant 26738 (A_P271Q_strat2), one-armed trastuzumab antibody with heterodimeric IgG1 Fc”, which Kd [3] is on record?
The Kd was 77 nM.

And the Kd [7]?
The Kd was 26 nM.

Which results are given for “Variant 26739 (A_P271N_strat2), one-armed trastuzumab antibody with heterodimeric IgG1 Fc”?
Kd [3]: 90 nM; Kd [7]: 28 nM

With “Variant 26709 (A_E269H_strat2), one-armed trastuzumab antibody” as the substance, how does the Kd [1] read?
The Kd was 69 nM.

And the Kd [2]?
Its Kd is 22 nM.

Which Kd [1] does the source give for “Variant 26720 (A_D270S_strat2), one-armed trastuzumab antibody” here?
The Kd was 79 nM.

And the Kd [2]?
The Kd was 29 nM.

For “Variant 32261 (trastuzumab FSA; chain A L234Q_strat1, chain B G330*K_strat1) (antibody)”, which C1q Binding (% WT) [8] is on record?
Its C1q Binding (% WT) is 209 % WT.

What does the source list for “Variant 26736 (A_P271T_strat2), one-armed trastuzumab antibody with heterodimeric IgG1 Fc”?
Kd [3]: 120 nM; Kd [7]: 47 nM

For “Variant 32255 (trastuzumab FSA; chain A S239T_strat1, chain B D329*I_F328*Y_strat1) (antibody)”, which C1q Binding (% WT) [8] is on record?
Its C1q Binding (% WT) is 194 % WT.

Which Kd [1] does the source give for “Variant 26718 (A_D270Y_strat2), one-armed trastuzumab antibody” here?
Its Kd is 69 nM.

What about the Kd [2] of the same substance?
The Kd was 26 nM.
